How the values were obtained:
[1] = target: acetylcholine receptor on AchR-overexpressed TE671 cells; assay: cell-based or functional assay
[2] = target: acetylcholine receptor protein; assay: SPR, AchR on CM5 chip, positive control

| Substance | IC50 value for AchR (AchR inhibitory effect in TE671 cells) [1] [µM] | Kd [2] [µM] |
| --- | --- | --- |
| Synake (peptide) | 75 | 2300 |
| bungarotoxin | 0.0075 | – |
